Measured values as given in patent publication US20150057436A1 (ARGEN X, published 2015).
Numbering of substitutions follows the chain as printed.

B1: Fab 1C3 (Fab, part only; not given: lambda light chain, V domains shown, not shown: a dimerising Fc or GST)
VH: EVQLVESGGGLVQPGGSLRLSCAASGFTFSSYWMYWVRQAPGKGLEWVSAINTGGGRTYYADSVKGRFTISRDNAKNTLYLQMNSLKSEDTAVYYCAKGTSADGSSWYVPADPYDYWGQGTQVTVSS
B2: Fab 1A1 (Fab, part only; not given: lambda light chain, V domains shown, not shown: a dimerising Fc or GST)
VH: EVQLVESGGGLVQPGGSLRLSCAASGFTFDDYAMSWVRQAPGKGLEWVSTISWNGGATYYAESMKGRFTISRDNAKNTLYLQMNSLKSEDTAVYYCAKPYYSDYVGVEYDYWGQGTQVTVSS
B3: Fab 1B3 (Fab, part only; not given: lambda light chain, V domains shown, not shown: a dimerising Fc or GST)
VH: EVQLVQSGAELRNPGASVKVSCKASGYTFTSYYIDWVRQAPGQGLEWMGRIDPEDGGTKYAQKFQGRVTFTADTSTSTAYVELSSLRSEDTAVYYCARSGRYELDYWGQGTQVTVSS
B4: Fab 1G1 (Fab, part only; not given: lambda light chain, V domains shown, not shown: a dimerising Fc or GST)
VH: B3 VH with I34T, G57D, S84T, A97L, R101A
B5: wild type llama 1E2 Fab (Fab, V domains shown)
VH: EVQLVESGGGLVQPGGSLRLSCTASGFTFSNYWMYWVRQAPGKGLEWVSAINAAGSTYYADSVKGRFTISRDNAKNTLYLQMNSLQSEDTALYYCANLPRWGQGTQVTVSS
VL: QTVVTQEPSLSVSPGGTVTLTCGLSSGSVTSGNYPGWYQQKPGQAPRTLIYNTNSRYSGVPNRFSGSISGNKAALTITGAQPEDEADYYCAVYIGSSSYPVVFGGGTHLTVL
notes: Llama variable and llama constant domains, produced from pCB3; captured through its myc tag; also called Fab 1E2
B6: 1E2 Fab wt Vλ/hum VH (Fab, V domains shown)
VH: B5 VH with T23A, A74S, Q86R, S87A, L92V, Q106L
VL: B5 VL
notes: also called wt/hum
B7: 1E2 Fab wt Vλ/safe VH (Fab, V domains shown)
VH: B5 VH with T23A, A74S, L92V
VL: B5 VL
notes: also called wt/safe
B8: chimeric 1E2 Fab (llama Vλ and VH fused to human Cλ and CH1) (Fab, V domains shown)
VH: B5 VH
VL: B5 VL
notes: VH fused to human CH1, Vλ fused to human Cλ; produced in E. coli from pCB5; myc tag; also called wt 1E2
B9: hum 1F2 (fully humanized Vλ and VH fused to human Cλ and CH1), phage expressing gene3-Fab fusion (Fab, V domains shown)
VH: EVQLLESGGGLVQPGGSLRLSCAASGFTFSTYAMSWVRQAPGKGLEWVSGINTGGGSTGYADSVKGRFTISRDNSKNTLYLQMNSLRAEDTAVYYCAKDWMATTPWGQGTLVTVSS
VL: QTVVTQEPSFSVSPGGTVTLTCGLSSGSVTTNNYPGWYQQTPGQAPRTLIYNTNNRSSGVPDRFSGSILGNKAALTITGAQADDESDYYCALYMSSGSNNAVFGGGTKLTVL
notes: also called fully (hum) humanized 1F2
B10: wt 1E2 (llama Vλ and VH fused to human Cλ and CH1), phage expressing gene3-Fab fusion (Fab, V domains shown)
VH: B5 VH
VL: B5 VL
B11: hum 1E2 (fully humanized Vλ and VH fused to human Cλ and CH1), phage expressing gene3-Fab fusion (Fab, V domains shown)
VH: B5 VH with T23A, A74S, Q86R, S87A, L92V, Q106L
VL: B5 VL with L10F, K41T, Y57S, N62D, S69L, P82A, E83D, A86S, H108K

What was measured:
human IL-1 Beta [1] = biological target: T1, human IL-1 Beta (human, UniProt P01584 117-269, biotinylated in the Fab, phage and competition ELISAs); test: cell-based or functional assay
T1 construct: also called biot-IL-1 Beta; biotinylated IL-1 Beta
Target sequence in this assay (P01584 117-269 limits assumed): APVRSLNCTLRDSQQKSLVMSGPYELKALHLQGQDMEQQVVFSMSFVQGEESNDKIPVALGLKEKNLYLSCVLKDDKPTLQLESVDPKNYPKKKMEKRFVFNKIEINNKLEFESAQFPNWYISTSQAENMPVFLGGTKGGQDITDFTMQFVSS

human IL-1 Beta [2] = biological target: T1, human IL-1 Beta; test: ELISA based competition assay; competitor: antagonistic reference mouse mAb
Target sequence in this assay (P01584 117-269 limits assumed): as above

human IL-1 Beta [3] = biological target: T1, human IL-1 Beta; test: competition ELISA, periplasmic Fab extract; competitor: coated blocking mouse mAb; OD of biot-IL-1 Beta bound
Target sequence in this assay (P01584 117-269 limits assumed): as above

human IL-1 Beta [4] = biological target: T1, human IL-1 Beta; test: ELISA: Fab captured on anti-myc plate, biot-IL-1 Beta, streptavidin-HRP
Procedure: For this the Fabs were captured on an anti-myc coated Maxisorp plate. Biotinylated human IL-1 Beta was added and bound cytokine was detected using HRP-conjugated streptavidin.
The genes of these Fabs were ordered as synthetic genes with GeneArt (Germany) and were subsequently produced in E. coli, purified and tested for their ability to bind biot-IL-1 Beta. For this the Fabs were captured on an anti-myc coated Maxisorp plate. Biotinylated human IL-1 Beta was added and bound cytokine was detected using HRP-conjugated streptavidin. The read out of this assay is represented in FIG. 3 below. [0459] […] [0460] Partial (wt Vλ/safe VH) and complete (wt Vλ/hum VH) humanization of the VH domain of 1E2 generated a functional Fab.

human IL-1 Beta [5] = biological target: T1, human IL-1 Beta; test: phage ELISA: biot-IL-1 Beta captured on neutravidin, crude phage, anti-M13-HRP
Procedure: (§1) The humanized variants of clone 1F2 were tested with phage expressing gene3-Fabs fusions (FIG. 4). Phage were produced from 4 independent clones for each construct: [0462] wt 1F2 and wt 1E2 (llama Vλ and VH fused to human CA and CH1) [0463] safe variant 1F2 and safe variant 1E2 (partially humanized Vλ fused to human CA and CH1) [0464] hum 1F2 and hum 1E2 (fully humanized Vλ and VH fused to human CA and CH1)
(§2) Four clones for each Fab were tested to overcome clonal variation (due to bacterial growth, phage production efficiency and toxicity etc. . . . ). Phage ELISA was performed by capturing of biotinylated IL-1 Beta on neutravidin coated Maxisorp plate and subsequent incubation of crude phage extract (i.e. bacterial medium). After extensive washing, bound phages were detected with an anti-M13-HRP monoclonal antibody. […] [0466] Back mutations in the framework regions of 1F2 VL and VH domains to the closest human germline successfully yield partially (safe) and fully (hum) humanized variants, maintaining antigen specificity. Successful Formatting of Camelid Variable Domains with Human Constant Domains

neutravidin = biological target: T2, neutravidin (UniProt P02701 25-152); test: phage ELISA on neutravidin coated wells, crude phage extract, anti-M13-HRP
T2 construct: Capture protein of the phage ELISA, tested alone as the negative control
Procedure: as §1, §2

T2 sequence (P02701 25-152): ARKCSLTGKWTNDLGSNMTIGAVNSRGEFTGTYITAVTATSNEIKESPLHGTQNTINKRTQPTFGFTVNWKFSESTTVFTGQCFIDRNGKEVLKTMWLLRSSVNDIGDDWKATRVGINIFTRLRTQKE

Binder	OD (human IL-1 Beta [3]) [OD]	binding result (human IL-1 Beta [4])	also measured
B1	0.386	–	IC50 in the bioassay (human IL-1 Beta [1]): 3 µg/mL; concentration at which competition is seen (human IL-1 Beta [2]): > 50 µg/mL
B2	0.205	–	IC50 in the bioassay (human IL-1 Beta [1]): 10 µg/mL; IC50 (human IL-1 Beta [2]): 12 µg/mL
B3	0.444	–	–
B4	0.498	–	–
B5	–	binds	–
B6	–	binds	–
B7	–	binds	–
B8	–	binds	–
B9	–	–	binding result (human IL-1 Beta [5]): binds; binding result (neutravidin): no binding
B10	–	–	binding result (neutravidin): no binding
B11	–	–	binding result (neutravidin): no binding
